Experimental data: US20200332003A1
Substitutions are numbered along the chain they refer to. Values joined by “and” are separate entries in the source; they are usually repeats but may differ in a detail not shown here. Equal values may be shown once. One block for each binder: values may come before it.

Legend:
[1] = molecular target: TRBV9 + TRAV26 antigen; assay: BLI (OctetRed 96), antigen immobilized on AR2G sensor, antibody 126-2 nM, 1:1 model
[2] = molecular target: TRBV9 + TRAV38 antigen; assay: as above
[3] = molecular target: T cell receptor with a beta-chain of the TRBV9 family on human peripheral blood T lymphocytes (human); assay: flow cytometry of human blood mononuclear cells, FITC-labelled antibody at 27 ng per test (lower plot), co-stained with anti-CD3-eFluor 405 [lower plot]
[4] = molecular target: T cell receptor with a beta-chain of the TRBV9 family on human peripheral blood T lymphocytes (human); assay: flow cytometry of human blood mononuclear cells, FITC-labelled antibody at 270 ng per test (upper plot), co-stained with anti-CD3-eFluor 405 [upper plot]
[5] = molecular target: T cell receptor with a beta-chain of the TRBV9 family on human peripheral blood T lymphocytes (human); assay: cell sorting with the FITC-labelled antibody, then sequencing of TCR beta-chains
[6] = molecular target: T cell receptor with a beta-chain of the TRBV9 family on human peripheral blood T lymphocytes (human); assay: flow cytometry, FITC-labelled antibody at 5 ng/ul and 0.5 ng/ul on human mononuclear blood cells

- Kd [1]: 0.22 nM and 0.204 nM and 0.278 nM
- koff [1]: 0.000114 s⁻¹ and 0.000113 s⁻¹ and 0.000183 s⁻¹
- kon [1]: 559000 M⁻¹ s⁻¹ and 515000 M⁻¹ s⁻¹ and 658000 M⁻¹ s⁻¹
- Kd [2]: 0.365 nM and 0.529 nM and 0.414 nM
- koff [2]: 0.000205 s⁻¹ and 0.000196 s⁻¹ and 0.000183 s⁻¹
- kon [2]: 562000 M⁻¹ s⁻¹ and 371000 M⁻¹ s⁻¹ and 441000 M⁻¹ s⁻¹
- % of cells in the CD3+TRBV9+ gate (small rectangle) [3]: 3%
- % of cells in the CD3+TRBV9+ gate (small rectangle) [4]: 1.6%
B1: anti-TRBV9-1 monoclonal antibody (antibody, human IgG1, kappa, V domains shown)
VH: QIQLVQSGPELREPGESVKLSCKASGYTFTDYLVHWVKQAPGKGLKWMGWINTYTGTPTYADDFEGRFVFSLEASASTANLQISNLKNEDTATYFCARSWRRGLRGLGFDYWGQGVFVTVSS
VL: DVQMTQSPYNLAASPGESVSINCKASKSINKYLAWYQQKPGKPNKLLIYDGSTLQSGIPSRFSGSGSGTDFTLTIRGLEPEDFGLYYCQQHNEYPPTFGAGTKLELKR

- Kd [1]: < 0.001 nM
- koff [1]: < 1e-07 s⁻¹
- kon [1]: 865000 M⁻¹ s⁻¹ and 579000 M⁻¹ s⁻¹
- Kd [2]: < 0.001 nM
- koff [2]: < 1e-07 s⁻¹
- kon [2]: 713000 M⁻¹ s⁻¹ and 476000 M⁻¹ s⁻¹
- % of cells in the CD3+TRBV9+ gate (small rectangle) [3]: 2.4%
- % of cells in the CD3+TRBV9+ gate (small rectangle) [4]: 2.9%
B2: anti-TRBV9-4 monoclonal antibody (antibody, human IgG1, kappa, V domains shown)
VH: B1 VH with L104I, L107I
VL: B1 VL

- kon [1]: 447000 M⁻¹ s⁻¹ and 381000 M⁻¹ s⁻¹
- Kd [2]: < 0.001 nM
- koff [2]: < 1e-07 s⁻¹
- kon [2]: 397000 M⁻¹ s⁻¹ and 289000 M⁻¹ s⁻¹
- percent of TCR beta-chain sequences of the sorted CD3+TRBV9+ fraction that belong to the TRBV9 family [5]: 90%
- percent of the CD3-positive fraction stained [6]: 2.9%
B3: anti-TRBV9-2 monoclonal antibody (antibody, human IgG1, kappa, V domains shown)
VH: B1 VH with L107I
VL: B1 VL

- Kd [1]: 0.319 nM and 0.582 nM
- koff [1]: 9.16e-05 s⁻¹ and 9.8e-05 s⁻¹
- kon [1]: 287000 M⁻¹ s⁻¹ and 168000 M⁻¹ s⁻¹
- Kd [2]: 0.311 nM and 0.4 nM
- koff [2]: 9.61e-05 s⁻¹ and 9.16e-05 s⁻¹
- kon [2]: 309000 M⁻¹ s⁻¹ and 229000 M⁻¹ s⁻¹
- % of cells in the CD3+TRBV9+ gate (small rectangle) [3]: 2.6%
- % of cells in the CD3+TRBV9+ gate (small rectangle) [4]: 3%
B4: anti-TRBV9-3 monoclonal antibody (antibody, human IgG1, kappa, V domains shown)
VH: B1 VH with L104I
VL: B1 VL
